According to US20080292641A1 (MORPHOTEK, published 2008):

Molecular target: TT (tetanus toxin / tetanus toxoid) (UniProt P04958 2-1315)
Test: ELISA of hybridoma clones

Chain of TT (tetanus toxin / tetanus toxoid) (P04958 2-457 limits assumed, chain 1 of 2): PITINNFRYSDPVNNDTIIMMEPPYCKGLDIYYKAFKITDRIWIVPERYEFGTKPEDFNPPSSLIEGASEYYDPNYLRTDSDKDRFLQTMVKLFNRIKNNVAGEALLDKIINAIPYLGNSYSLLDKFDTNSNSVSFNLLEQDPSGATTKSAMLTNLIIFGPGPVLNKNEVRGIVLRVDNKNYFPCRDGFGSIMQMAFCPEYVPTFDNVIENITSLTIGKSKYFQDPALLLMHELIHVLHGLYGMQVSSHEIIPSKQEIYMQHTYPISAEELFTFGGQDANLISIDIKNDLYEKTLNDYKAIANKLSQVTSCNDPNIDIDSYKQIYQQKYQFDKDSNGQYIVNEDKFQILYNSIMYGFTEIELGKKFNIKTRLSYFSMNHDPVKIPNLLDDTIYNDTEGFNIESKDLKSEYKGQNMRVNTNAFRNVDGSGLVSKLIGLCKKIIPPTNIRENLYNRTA
Chain of TT (tetanus toxin / tetanus toxoid) (P04958 458-1315 limits assumed, chain 2 of 2): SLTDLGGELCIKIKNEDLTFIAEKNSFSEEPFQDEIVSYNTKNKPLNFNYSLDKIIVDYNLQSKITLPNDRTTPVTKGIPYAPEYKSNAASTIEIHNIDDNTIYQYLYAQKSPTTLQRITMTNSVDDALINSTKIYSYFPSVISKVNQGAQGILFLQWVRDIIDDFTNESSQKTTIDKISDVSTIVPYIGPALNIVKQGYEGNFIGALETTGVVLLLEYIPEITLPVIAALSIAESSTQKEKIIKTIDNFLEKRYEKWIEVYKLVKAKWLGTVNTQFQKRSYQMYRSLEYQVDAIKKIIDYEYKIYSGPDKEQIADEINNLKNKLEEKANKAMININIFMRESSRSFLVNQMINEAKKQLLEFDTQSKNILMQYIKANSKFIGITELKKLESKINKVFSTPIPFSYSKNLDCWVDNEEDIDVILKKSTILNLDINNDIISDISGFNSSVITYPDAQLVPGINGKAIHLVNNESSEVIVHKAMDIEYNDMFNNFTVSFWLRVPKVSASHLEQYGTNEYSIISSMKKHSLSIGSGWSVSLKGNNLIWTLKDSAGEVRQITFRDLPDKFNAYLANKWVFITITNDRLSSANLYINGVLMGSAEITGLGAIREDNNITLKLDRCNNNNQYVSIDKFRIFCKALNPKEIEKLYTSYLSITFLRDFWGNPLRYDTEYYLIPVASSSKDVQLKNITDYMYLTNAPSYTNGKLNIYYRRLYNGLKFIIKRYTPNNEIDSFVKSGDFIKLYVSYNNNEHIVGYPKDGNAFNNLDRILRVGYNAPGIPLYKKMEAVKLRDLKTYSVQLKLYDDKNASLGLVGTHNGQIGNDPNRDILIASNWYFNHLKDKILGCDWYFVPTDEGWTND

Binder | binding result
anti-GM-CSF human IgG1 monoclonal antibody E10 (antibody, V domains shown, Fully human IgG1 kappa made by a hybridoma from B cells of a PAP patient; also called 4E10; E10.20) VH: QVQLEESGGGVVQPGRSLRLSCAASGFTFTNYGMHWVRQAPGKGLEWLALISYDGNRQYYADSVKGRFTVSRDNPNNTLHLEMKSLRAEDSAIYYCARGAGVLLWFGDLSWFDPWGQGTLVTVSS VL: DIQMTQSPSNLSASVGDRVTITCRASQNINTWLAWYQHKPGKPPKLRIYQASTLESGVPSRFSGSGSGTIFTLTISSLQPDDFGTYYCQQNNSYPYTFGQGTKLEINR | no binding
anti-GM-CSF human IgG1 monoclonal antibody G9 (antibody, V domains shown, Fully human IgG1 kappa made by a hybridoma from B cells of a PAP patient; also called 10G9; 10G9.1) VH: EVQLVESGGGLVQPGGSLRLSCAASGFTFSRHWMHWLRQVPGKGPVWVSRINGAGTSITYADSVRGRFTISRDNANNTLFLQMNSLRADDTALYFCARANSVWFRGLFDYWGQGTPVTVSS VL: EIVLTQSPVTLSVSPGERVTLSCRASQSVSTNLAWYQQKLGQGPRLLIYGASTRATDIPARFSGSGSETEFTLTISSLQSEDFAVYYCQQYDKWPDTFGQGTKLEIKR | no binding
